{"source": "paper PMC7515725", "key": {"LexA": {"tested_on": "LexA", "assay": "FRET LexA titration", "conditions": "75 mM NaCl, absolute S1/2 only in figure, LexA FRET: 10 nM nucleosome, 0-100 uM LexA, 0.5x TE, 10 min, nucleosomes reconstituted by KCl step dialysis (2 M to 10 mM), 10 mM Tris-HCl pH 7.8 …, scale: % decrease of S1/2 vs unmodified nucleosome"}, "[1]": {"tested_on": "Histone octamer with H4K77succ (Xenopus laevis)", "assay": "FRET salt titration", "conditions": "LexA FRET: 10 nM nucleosome, 0-100 uM LexA, 0.5x TE, 75 mM NaCl, 10 min, nucleosomes reconstituted by KCl step dialysis (2 M to 10 mM), 10 mM Tris-HCl pH 7.8 …"}, "[2]": {"tested_on": "Histone octamer, H2B T112C or end-label DNA FRET, unmodified H4 (Xenopus laevis)", "assay": "FRET salt titration", "conditions": "C1/2 is the NaCl concentration for 50% FRET loss, LexA FRET: 10 nM nucleosome, 0-100 uM LexA, 0.5x TE, 75 mM NaCl, 10 min, nucleosomes reconstituted by KCl step dialysis (2 M to 10 mM), 10 mM Tris-HCl pH 7.8 …"}}}
{"substance": "601 DNA with LexA site, in H4K77succ nucleosome", "values": [{"measurement": "binding signal", "setting": "LexA", "value": 45.5}]}
{"substance": "MMTV-B", "values": [{"measurement": "binding signal (% decrease of C1/2 vs unmodified)", "setting": "[1]; NaCl titration", "value": 9}, {"measurement": "K half", "setting": "[2]", "value": 0.475, "unit": "M NaCl"}]}
{"substance": "Widom 601, end-labelled", "values": [{"measurement": "K half", "setting": "[1]; C1/2 is the NaCl concentration for 50% FRET loss, 14.8% lower than unmodified", "value": 0.529, "unit": "M NaCl"}, {"measurement": "K half", "setting": "[2]; not a protein Kd", "value": 0.621, "unit": "M NaCl"}]}
